In patent publication US20190218283A1 (published 2019):

Biological target: murine pro-myostatin (proGDF8) (mouse, UniProt O08689 25-376)
Test: cell-based or functional assay

Activity Assay - 293T cells EC50: 307 pM
B1: Ab6 (Ab5 IgG4 containing the corrected germline residues) (antibody, V domains shown)
VH: QVQLVESGGGVVQPGRSLRLSCAASGFAFSSYGMHWVRQAPGKGLEWVAVISYDGNNKYYADSVKGRFTISRDNSKNTLYLQMNSLRAEDTAVYYCARDLLVRFLEWSHKYGMDVWGQGTTVTVSS
VL: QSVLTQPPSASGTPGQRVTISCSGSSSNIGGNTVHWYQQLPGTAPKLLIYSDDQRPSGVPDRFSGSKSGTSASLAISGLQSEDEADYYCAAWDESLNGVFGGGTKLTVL
